From US20060257867

Molecular target: T1, ghrelin (D-enantiomer, rat) (Rattus norvegicus) (UniProt Q9QYH7)
T1 sequence: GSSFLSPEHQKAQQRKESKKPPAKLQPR
Experiment: pulldown
Conditions: bead assay, active conformation; 37 C

Sequence | Kd
GGAGCUCAGACUUCACUCGUGUGAGGCAAUAAAAACUUAAGUCCGAAGGUAACCAAUCCUACACGUACCACUGUCGGUUCCAC [E3] | < 100 nM
GGAGCUCAGACUUCACUCGUGUGAGGCAAUAAAACAUAAGUCCGAAGGUAACCAAUCCUACACGUACCACUGUCGGUUCCAC [B7] | < 100 nM
GGAGCUCAGACUUCACUCGUGUGAGGCAAUAAAACUUAAGUCCGAAGGUAACCAAUCCUGCACGUACCACUGUCGGUUCCAC [E12] | < 100 nM
GGAGCUCAGACUUCACUCGUGUGAGGCAAUAAAACUUGUAAGUCCGAAGGUAACCAAUCCUACACGUACCACUGUCGGUUCCAC [B12] | < 100 nM
GGAGCUCAGACUUCACUCGUGUGAGGCAGUAAAACUUAAGUCCGAAGGUAACCAAUCCUACACGUACCACUGUCGGUUCCAC [G2] | < 100 nM
GGAGCUCAGACUUCACUCGUGUGAGGUAGUAAAAAAAAAAAAAAAACAUAAAUCCGAAGGUAACCAAUCCUACACGUACCACUGUCGGUUCCAC [G5] | < 100 nM
GGAGCUCAGACUUCACUCGUGUGAGGUAGUAAAAAAAAAAAACGUAAAUCCGAAGGUAACCAAUCCUACACGUACCACUGUCGGUUCCAC [A12] | < 100 nM
GGAGCUCAGACUUCACUCGUGUGAGGUAGUAAAAAAAAAAACGUAAAUCCGAAGGUAACCAGUCCUACACGUACCACUGUCGGUUCCAC [F5] | < 100 nM
GGAGCUCAGACUUCACUCGUGUGAGGUAGUAAAAAAAAAACGUAAAUCCGAAGGUAACCAAUCCUACACGUACCACUGUCGGUUCCAC [A3] | < 100 nM
